In the supplement of paper PMC11246515:
± gives the standard deviation of the averaged measurements.

Assay: total protein half-life in vivo (active degradation + dilution); higher = more stable protein
[1] = E. coli NCM3722 delta-clpP delta-lon delta-hslV, growth: N-lim chemostat, doubling time 6 h
[2] = E. coli NCM3722 delta-clpP, growth: N-lim chemostat, doubling time 6 h
[3] = E. coli NCM3722 delta-hslV, growth: N-lim chemostat, doubling time 6 h
[4] = E. coli NCM3722 delta-lon, growth: N-lim chemostat, doubling time 6 h
[5] = E. coli NCM3722 delta-smpB, growth: N-lim chemostat, doubling time 6 h
[6] = wild type E. coli NCM3722, growth: C-lim chemostat, doubling time 3 h
[7] = wild type E. coli NCM3722, growth: C-lim chemostat, doubling time 6 h
[8] = wild type E. coli NCM3722, growth: C-lim chemostat, doubling time 12 h
[9] = wild type E. coli NCM3722, growth: N-lim chemostat, doubling time 6 h
[10] = wild type E. coli NCM3722, growth: N-lim chemostat, doubling time 12 h
[11] = wild type E. coli NCM3722, growth: P-lim chemostat, doubling time 6 h
[12] = wild type E. coli NCM3722, growth: P-lim chemostat, doubling time 12 h

| Sequence | total protein half-life in vivo [1] [h] | total protein half-life in vivo [2] [h] | total protein half-life in vivo [3] [h] | total protein half-life in vivo [4] [h] | total protein half-life in vivo [5] [h] | total protein half-life in vivo [6] [h] | total protein half-life in vivo [7] [h] | total protein half-life in vivo [8] [h] | total protein half-life in vivo [9] [h] | total protein half-life in vivo [10] [h] | total protein half-life in vivo [11] [h] | total protein half-life in vivo [12] [h] |
| --- | --- | --- | --- | --- | --- | --- | --- | --- | --- | --- | --- | --- |
| MKFFALFIYRPVATILLSVAITLCGILGFRMLPVAPLPQVDFPVIIVSASLPGASPETMASSVATPLERSLGRIAGVSEMTSSSSLGSTRIILQFDFDRDINGAARDVQAAINAAQSLLPSGMPSRPTYRKANPSDAPIMILTLTSDTYSQGELYDFASTQLAPTISQIDGVGDVDVGGSSLPAVRVGLNPQALFNQGVSLDDVRTAVSNANVRKPQGALEDGTHRWQIQTNDELKTAAEYQPLIIHYNNGGAVRLGDVATVTDSVQDVRNAGMTNAKPAILLMIRKLPEANIIQTVDSIRAKLPELQETIPAAIDLQIAQDRSPTIRASLEEVEQTLIISVALVILVVFLFLRSGRATIIPAVSVPVSLIGTFAAMYLCGFSLNNLSLMALTIATGFVVDDAIVVLENIARHLEAGMKPLQAALQGTREVGFTVLSMSLSLVAVFLPLLLMGGLPGRLLREFAVTLSVAIGISLLVSLTLTPMMCGWMLKASKPREQKRLRGFGRMLVALQQGYGKSLKWVLNHTRLVGVVLLGTIALNIWLYISIPKTFFPEQDTGVLMGGIQADQSISFQAMRGKLQDFMKIIRDDPAVDNVTGFTGGSRVNSGMMFITLKPRDERSETAQQIIDRLRVKLAKEPGANLFLMAVQDIRVGGRQSNASYQYTLLSDDLAALREWEPKIRKKLATLPELADVNSDQQDNGAEMNLVYDRDTMARLGIDVQAANSLLNNAFGQRQISTIYQPMNQYKVVMEVDPRYTQDISALEKMFVINNEGKAIPLSYFAKWQPANAPLSVNHQGLSAASTISFNLPTGKSLSDASAAIDRAMTQLGVPSTVRGSFAGTAQVFQETMNSQVILIIAAIATVYIVLGILYESYVHPLTILSTLPSAGVGALLALELFNAPFSLIALIGIMLLIGIVKKNAIMMVDFALEAQRHGNLTPQEAIFQACLLRFRPIMMTTLAALFGALPLVLSGGDGSELRQPLGITIVGGLVMSQLLTLYTTPVVYLFFDRLRLRFSRKPKQTVTE | 6.8 ± 0.5 | 6.49 ± 0.36 | 5.92 ± 0.38 | 7.42 ± 0.68 | 5.44 ± 0.14 | 3.64 ± 0.29 | 6.08 ± 1 | 14.4 ± 0.89 | 5.78 ± 0.89 | 13.8 ± 0.8 | 6.3 ± 0.2 | 12.2 ± 0.66 |
| MKFQAIVLASFLVMPYALADDQGGLKQDAAPPPPHAIEDGYRGTDDAKKMTVDFAKTMHDGASVSLRGNLISHKGEDRYVFRDKSGEINVVIPAAVFDGREVQPDQMINISGSLDKKSAPAVVRVTHLQK | 3.34 ± 0.2 | 3.77 ± 0.45 | 5.37 ± 0.2 | – | – | 3.02 ± 0.51 | 5.22 ± 0.22 | 6.52 ± 1.8 | 5.18 ± 0.37 | 8.94 ± 0.26 | 4.33 ± 0.9 | 7.82 ± 2.9 |
| MKFRLGGFEAIKSAYMAQVQYSMWVTRKDAWYFANYDPRMKREGLHYVVIERNEKYMASFDEMVPEFIEKMDEALAEIGFVFGEQWR | – | 2.75 | – | – | – | – | – | – | – | – | – | – |
| MKFSELWLREWVNPAIDSDALANQITMAGLEVDGVEPVAGSFHGVVVGEVVECAQHPNADKLRVTKVNVGGDRLLDIVCGAPNCRQGLRVAVATIGAVLPGDFKIKAAKLRGEPSEGMLCSFSELGISDDHSGIIELPADAPIGTDIREYLKLDDNTIEISVTPNRADCLGIIGVARDVAVLNQLPLVQPEIVPVGATIDDTLPITVEAPEACPRYLGRVVKGINVKAPTPLWMKEKLRRCGIRSIDAVVDVTNYVLLELGQPMHAFDKDRIEGGIVVRMAKEGETLVLLDGTEAKLNADTLVIADHNKALAMGGIFGGEHSGVNDETQNVLLECAFFSPLSITGRARRHGLHTDASHRYERGVDPALQHKAMERATRLLIDICGGEAGPVIDITNEATLPKRATITLRRSKLDRLIGHHIADEQVTDILRRLGCEVTEGKDEWQAVAPSWRFDMEIEEDLVEEVARVYGYNNIPDEPVQASLIMGTHREADLSLKRVKTLLNDKGYQEVITYSFVDPKVQQMIHPGVEALLLPSPISVEMSAMRLSLWTGLLATVVYNQNRQQNRVRIFESGLRFVPDTQAPLGIRQDLMLAGVICGNRYEEHWNLAKETVDFYDLKGDLESVLDLTGKLNEVEFRAEANPALHPGQSAAIYLKGERIGFVGVVHPELERKLDLNGRTLVFELEWNKLADRVVPQAREISRFPANRRDIAVVVAENVPAADILSECKKVGVNQVVGVNLFDVYRGKGVAEGYKSLAISLILQDTSRTLEEEEIAATVAKCVEALKERFQASLRD | 6.244 ± 0.025 | 5.88 ± 0.61 | 5.77 ± 0.16 | 5.98 ± 0.44 | 5.33 ± 0.063 | 3.37 ± 0.066 | 6.34 ± 0.37 | 12.5 ± 0.56 | 5.41 ± 0.088 | 10.4 ± 0.24 | 6.01 ± 0.4 | 12 ± 0.58 |
| MKFVDEASILVVAGDGGNGCVSFRREKYIPKGGPDGGDGGDGGDVWMEADENLNTLIDYRFEKSFRAERGQNGASRDCTGKRGKDVTIKVPVGTRVIDQGTGETMGDMTKHGQRLLVAKGGWHGLGNTRFKSSVNRTPRQKTNGTPGDKRELLLELMLLADVGMLGMPNAGKSTFIRAVSAAKPKVADYPFTTLVPSLGVVRMDNEKSFVVADIPGLIEGAAEGAGLGIRFLKHLERCRVLLHLIDIDPIDGTDPVENARIIISELEKYSQDLATKPRWLVFNKIDLLDKVEAEEKAKAIAEALGWEDKYYLISAASGLGVKDLCWDVMTFIIENPVVQAEEAKQPEKVEFMWDDYHRQQLEEIAEEDDEDWDDDWDEDDEEGVEFIYKR | 5.72 ± 1.1 | 4.17 ± 0.15 | 2.39 ± 0.18 | 2.44 ± 0.097 | 2.185 ± 0.021 | 2.27 ± 0.1 | 3.58 ± 0.14 | 5.35 ± 0.73 | 2.39 ± 0.11 | 2.82 ± 0.035 | 3.04 ± 0.22 | 5.89 ± 0.39 |
| MKGLNKITCCLLAALLMPCAGHAENEQYGANFNNADIRQFVEIVGQHLGKTILIDPSVQGTISVRSNDTFSQQEYYQFFLSILDLYGYSVITLDNGFLKVVRSANVKTSPGMIADSSRPGVGDELVTRIVPLENVPARDLAPLLRQMMDAGSVGNVVHYEPSNVLILTGRASTINKLIEVIKRVDVIGTEKQQIIHLEYASAEDLAEILNQLISESHGKSQMPALLSAKIVADKRTNSLIISGPEKARQRITSLLKSLDVEESEEGNTRVYYLKYAKATNLVEVLTGVSEKLKDEKGNARKPSSSGAMDNVAITADEQTNSLVITADQSVQEKLATVIARLDIRRAQVLVEAIIVEVQDGNGLNLGVQWANKNVGAQQFTNTGLPIFNAAQGVADYKKNGGITSANPAWDMFSAYNGMAAGFFNGDWGVLLTALASNNKNDILATPSIVTLDNKLASFNVGQDVPVLSGSQTTSGDNVFNTVERKTVGTKLKVTPQVNEGDAVLLEIEQEVSSVDSSSNSTLGPTFNTRTIQNAVLVKTGETVVLGGLLDDFSKEQVSKVPLLGDIPLVGQLFRYTSTERAKRNLMVFIRPTIIRDDDVYRSLSKEKYTRYRQEQQQRIDGKSKALVGSEDLPVLDENTFNSHAPAPSSR | 2.53 | – | – | – | 1.92 ± 0.044 | 2.2 | – | – | – | – | – | – |
| MKHELSSMKAFVILAESSSFNNAAKLLNITQPALTRRIKKMEEDLHVQLFERTTRKVTLTKAGKRLLPEARELIKKFDETLFNIRDMNAYHRGMVTLACIPTAVFYFLPLAIGKFNELYPNIKVRILEQGTNNCMESVLCNESDFGINMNNVTNSSIDFTPLVNEPFVLACRRDHPLAKKQLVEWQELVGYKMIGVRSSSGNRLLIEQQLADKPWKLDWFYEVRHLSTSLGLVEAGLGISALPGLAMPHAPYSSIIGIPLVEPVIRRTLGIIRRKDAVLSPAAERFFALLINLWTDDKDNLWTNIVERQRHALQEIG | 3.61 | – | – | – | – | – | – | – | – | – | – | – |
| MKHLHRFFSSDASGGIILIIAAILAMIMANSGATSGWYHDFLETPVQLRVGSLEINKNMLLWINDALMAVFFLLVGLEVKRELMQGSLASLRQAAFPVIAAIGGMIVPALLYLAFNYADPITREGWAIPAATDIAFALGVLALLGSRVPLALKIFLMALAIIDDLGAIIIIALFYTNDLSMASLGVAAVAIAVLAVLNLCGARRTGVYILVGVVLWTAVLKSGVHATLAGVIVGFFIPLKEKHGRSPAKRLEHVLHPWVAYLILPLFAFANAGVSLQGVTLDGLTSILPLGIIAGLLIGKPLGISLFCWLALRLKLAHLPEGTTYQQIMVVGILCGIGFTMSIFIASLAFGSVDPELINWAKLGILVGSISSAVIGYSWLRVRLRPSV | 6.65 | 6.24 ± 0.42 | 5.55 ± 0.066 | 5.75 ± 0.5 | 6.42 ± 0.43 | 3.69 | 5.22 ± 1.9 | 12 | 5.7 ± 0.59 | 11.7 ± 0.19 | 5.867 ± 0.035 | 10.6 ± 2 |
| MKHLTEMVRQHKAGKTNGIYAVCSAHPLVLEAAIRYASANQTPLLIEATSNQVDQFGGYTGMTPADFRGFVCQLADSLNFPQDALILGGDHLGPNRWQNLPAAQAMANADDLIKSYVAAGFKKIHLDCSMSCQDDPIPLTDDIVAERAARLAKVAEETCLEHFGEADLEYVIGTEVPVPGGAHETLSELAVTTPDAARATLEAHRHAFEKQGLNAIWPRIIALVVQPGVEFDHTNVIDYQPAKASALSQMVENYETLIFEAHSTDYQTPQSLRQLVIDHFAILKVGPALTFALREALFSLAAIEEELVPAKACSGLRQVLEDVMLDRPEYWQSHYHGDGNARRLARGYSYSDRVRYYWPDSQIDDAFAHLVRNLADSPIPLPLISQYLPLQYVKVRSGELQPTPRELIINHIQDILAQYHTACEGQ [P0C8K0] | – | – | – | – | – | 2.63 ± 0.042 | 3.29 | 5 ± 1.3 | – | – | – | – |
